Laboratory results as given in patent publication US20250325718A1, “IMMUNOCONJUGATES COMPRISING KALLIKREIN RELATED PEPTIDASE 2 ANTIGEN BINDING DOMAINS AND THEIR USES” (Janssen Biotech, Inc., priority 2021, published 2025).

Assay: DTPA challenge of Ac-225 labeled TOPA-[C7]-phenylthiourea-h11B6 (iTLC)
Type: physicochemical
Conditions: for DTPA challenge: chelated Ac-225 (iTLC): labeling reaction mixture, 10 mM DTPA pH 6.5, 37° C., 30 min
Procedure: 0.5 μL of the labeling reaction mixture was also mixed with 10 mM DTPA (pH=6.5, 15 μL) at 37° C. After 30 min, 10 μL of the mixture was spotted on iTLC-SG and developed by 10 mM EDTA. The dried iTLC-SG was left at room temperature for overnight before it was scanned on a Bioscan AR-2000 radio-TLC scanner. Under the elution conditions described herein, TOPA-[C7]-phenylthiourea-h11B6 chelated Ac-225 ^st ayed at the origin and any free Ac-225 would migrate with the solvent to the solvent front.
10 μL of fraction #3 collected after PD-10 column was mixed with 15 μL of 10 mM DTPA solution (pH 6.5), and incubated for 30 min. 10 μL of the mixture was loaded onto an iTLC-SG, which was developed with 10 mM EDTA and dried overnight. It was scanned on a Bioscan AR-2000 radio-TLC scanner.

[1] = 25 mM NaOAc, 0.04% PS-20, pH 5.5 (conjugate 10.4 mg/mL)
[2] = 1.0M NaOAc, 0.04% PS-20 (conjugate 9.36 mg/mL)
[3] = 1.5M NaOAc, 0.04% PS-20 (conjugate 9.36 mg/mL)
[4] = 3M NaOAc buffer (conjugate […])

Row | Substance | DTPA challenge of the purified conjugate: free Ac-225 (iTLC) (fraction #3 after PD-10 column, 10 mM DTPA pH 6.5, 30 min) | DTPA challenge: chelated Ac-225 (iTLC) [1] | DTPA challenge: chelated Ac-225 (iTLC) [2] | DTPA challenge: chelated Ac-225 (iTLC) [3] | DTPA challenge: chelated Ac-225 (iTLC) [4]
1 | Ac-225 labeled TOPA-[C7]-phenylthiourea-h11B6 antibody conjugate [Example 21] | no free Ac-225 | 99.8% | 99.9% | 99.9% | 99.7%
2 | TOPA-[C7]-phenylthiourea-h11B6 Antibody Conjugate [Example 20] |  | >99% | >99% | >99% | >99%
